Earlier results, collected in paper PMC8305778.

Biological target: FcεRIα (Homo sapiens) (UniProt P12319)
Test: given as Ka

Sequence of UniProt P12319 (P12319 26-257): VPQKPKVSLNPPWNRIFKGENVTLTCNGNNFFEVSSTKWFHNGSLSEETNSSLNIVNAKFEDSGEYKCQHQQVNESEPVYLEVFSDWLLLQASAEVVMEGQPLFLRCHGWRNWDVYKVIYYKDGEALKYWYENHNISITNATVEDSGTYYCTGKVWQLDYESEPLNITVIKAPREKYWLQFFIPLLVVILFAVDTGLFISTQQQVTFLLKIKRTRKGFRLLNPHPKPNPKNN

For IgE Fc (from UniProt P01854), the Kd is listed as 0.1 nM.
